Consider 1 molecule from paper PMC12392098, “Predicting the DNA binding specificity of transcription factor mutants using family-level biophysically interpretable machine learning”.

The target in this series is ASCL2 DBD wild type (human, UniProt Q99929 50-102). In words: EMSA; preferred over CACGTG probe; 32P EMSA: ~50 nM probe, 0.5/1/2 uM protein, 30 min, reagents as in Feng et al., gel at 4 C; fluorescent EMSA: 5x buffer (50 mM Tris pH 7.5, 250 mM NaCl, 5 mM MgCl2, 20% glycerol, 2.5 mM DTT, 2.5 mM EDTA, 250 ug/ml poly(dI-dC), 1 mg/ml BSA) used at 1x plus half volume protein dialysis buffer (20 mM HEPES pH 7.9, 200 mM NaCl, 10% glycerol, 2 mM MgCl2), gel 0.5x TBE at 4 C. Particulars: protein: recombinant; tags: N-terminal 6xHis; mScarlet fusion; chain copies: 2; label: 32P (SRI primer strand); blunt. On the technique in general: In EMSA bound probe runs differently from free probe, usually more slowly.
ASCL2 DBD wild type, sequence (Q99929 50-102): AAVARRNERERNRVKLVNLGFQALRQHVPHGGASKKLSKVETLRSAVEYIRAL

B1: CAGCTG probe (dsDNA)
DNA 1: TAGCCAATAACTTCGTCCCTCAGCTGCATATAAGGAAGATCTAACCACCAATTTGG
DNA 2: CCAAATTGGTGGTTAGATCTTCCTTATATGCAGCTGAGGGACGAAGTTATTGGCTA
Regarding B1, the binding result was “binds”.
